Reference: US12534748B2, “Engineered beta-subunit of tryptophan synthase for production of non-canonical amino acids” (California Institute of Technology, priority 2015, dated 2026)
Numbering of substitutions follows the chain as printed. Names and notes keep the numbering of the source.

Legend:
[1] = substrate: c1ccc2[nH]ccc2c1; assay: Tryptophan formation from L-serine and indole, kinetics of TmTrpB^T292S; format: biochemical, Thermotoga maritima; settings: other: 75° C., pH 8.0
Description: (§1) Kinetics and UV-Vis Spectroscopy. Data were collected between 550 and 250 nm on a UV1800 Shimadzu spectrophotometer (Shimadzu) using 0.25-20 μM of enzyme in 200 mM potassium phosphate (pH 8.0) in a quartz cuvette. Samples were incubated at 75° C. for >3 min to ensure a stable temperature was reached. PfTrpB activity (kcat) was measured by monitoring tryptophan formation at 290 nm using Δe290=1.89 mM^−1·cm^−1.
(§2) Cloning, expression, and purification of the different orthologs. The genes encoding AfTrpB (UNIPROT ID O28672), TmTrpB (UNIPROT ID P50909) and EcTrpB (UNIPROT ID P0A879) were obtained from IDT and cloned into pET22(b)+ using Gibson Assembly. Protein expression was carried out in E. coli BL21 E. cloni Express cells (Lucigen) by inoculating 10-mL Terrific Broth (with 100 μg/mL ampicillin (TBamp)) with a single colony and incubated over night at 37° C. and 250 rpm. These overnight cultures were used to scale up to 500-mL TBamp expression cultures, which were grown by shaking at 250 rpm and 37° C. for ˜3 h or until an OD600 of 0.8 was reached. […]
(§3) The next homolog, TmTrpB, was examined. […] The variants without the T292S mutation lacked this probative absorbance peak, but the decrease at 428 nm and concomitant increase at 350 nm are consistent with a similar, though less pronounced activation.

[2] = substrate: c1ccc2[nH]ccc2c1; assay: Tryptophan formation from L-serine and indole, kinetics of wild-type TmTrpB; format: biochemical, Thermotoga maritima; settings: other: 75° C., pH 8.0
[3] = substrate: c1ccc2[nH]ccc2c1; assay: Tryptophan formation from L-serine and indole, kinetics of TmTrpB double mutant; format: biochemical, Thermotoga maritima; settings: other: 75° C., pH 8.0
Description: as §1
as §2, with “reached. Then, after chilling the cultures on ice for 20 min, induction was conducted by the addition of IPTG to a final concentration of 1 mM. Induced cultures were allowed to grow at 250 rpm and 20° C. for another 20 h. After centrifugation, pelleted cells were frozen and stored at −20° C. until further use.” for “reached.”

[4] = substrate: c1ccc2[nH]ccc2c1; assay: Tryptophan formation from L-serine and indole, kinetics of TmTrpB^triple; format: biochemical, Thermotoga maritima; settings: other: 75° C., pH 8.0
Description: as §1, §2, §3

[5] = substrate: c1ccc2[nH]ccc2c1; assay: Tryptophan formation from L-serine and indole, kinetics of TmTrpS complex; format: biochemical, Thermotoga maritima; settings: other: 75° C., pH 8.0
Description: as §1
as §2, with “reached. Then, after chilling the cultures on ice for 20 min, induction was conducted by the addition of IPTG to a final concentration of 1 mM.” for “reached.”
TmTrpA gene was also obtained from IDT and cloned into pET22(b)+ using Gibson Assembly, but without including the C-terminal His-tag. […] Protein concentrations were determined via the Bradford assay (Bio-Rad).

[6] = substrate: c1ccc2[nH]ccc2c1; assay: Tryptophan formation from L-serine and indole, kinetics of wild-type AfTrpB; format: biochemical, Archaeoglobus fulgidus; settings: other: 60° C., pH 8.0
Description: as §1, with “Samples were incubated at 75° C. for >3 min to ensure a stable temperature was reached.” left out
as §2
The three TrpB homologs and their corresponding 0B2 variants were expressed and purified, and then their kinetic properties (kcat and KM of indole) were measured. […] The UV-vis spectra of the enzymes was recorded before and after adding L-serine, relying on the diagnostic spectrum of the PLP cofactor to report the steady state population of the catalytic intermediates.

[7] = substrate: c1ccc2[nH]ccc2c1; assay: Tryptophan formation from L-serine and indole, kinetics of AfTrpB double mutant; format: biochemical, Archaeoglobus fulgidus; settings: other: 60° C., pH 8.0
Description: as §1, with “Samples were incubated at 75° C. for >3 min to ensure a stable temperature was reached.” left out
as §2, with “reached. Then, after chilling the cultures on ice for 20 min, induction was conducted by the addition of IPTG to a final concentration of 1 mM. Induced cultures were allowed to grow at 250 rpm and 20° C. for another 20 h. After centrifugation, pelleted cells were frozen and stored at −20° C. until further use.” for “reached.”

[8] = substrate: c1ccc2[nH]ccc2c1; assay: Tryptophan formation from L-serine and indole, kinetics of EcTrpB double mutant; format: biochemical, Escherichia coli; settings: other: 37° C., pH 8.0
Description: as §1, with “Samples were incubated at 75° C. for >3 min to ensure a stable temperature was reached.” left out
as §2, with “reached. Then, after chilling the cultures on ice for 20 min, induction was conducted by the addition of IPTG to a final concentration of 1 mM. Induced cultures were allowed to grow at 250 rpm and 20° C. for another 20 h. After centrifugation, pelleted cells were frozen and stored at −20° C. until further use.” for “reached.”

B1: Thermotoga maritima TrpB variant TmTrpB^T292S, SEQ ID NO: 26 (Thermotoga maritima MSB8; T292S) (protein)
chain: MKGYFGPYGGQYVPEILMPALEELEAAYEEIMKDESFWKEFNDLLRDYAGRPTPLYFARRLSEKYGARIYLKREDLLHTGAHKINNAIGQVLLAKKMGKTRIIAETGAGQHGVATATAAALFGMECVIYMGEEDTIRQKPNVERMKLLGAKVVPVKSGSRTLKDAINEALRDWITNLQTTYYVIGSVVGPHPYPIIVRNFQKVIGEETKKQILEKEGRLPDYIVACVGGGSNAAGIFYPFIDSGVKLIGVEAGGEGLETGKHAASLLKGKIGYLHGSKTFVLQDDWGQVQVSHSVSAGLDYSGVGPEHAYWRETGKVLYDAVTDEEALDAFIELSRLEGIIPALESSHALAYLKKINIKGKVVVVNLSGRGDKDLESVLNHPYVRERIRLEHHHHHH
Work on B1 yielded a Km [1] of 25 µM.

B2: Thermotoga maritima tryptophan synthase beta-subunit TmTrpB, wild type, SEQ ID NO: 6 (Thermotoga maritima MSB8) (protein)
chain: B1 chain with S292T
B2 showed a Km [2] of 33 µM.

B3: Thermotoga maritima TrpB variant M145T N167D (Table 6 prints N167T), SEQ ID NO: 36 (Thermotoga maritima MSB8; M145T/N167D) (protein)
chain: B1 chain with M145T, N167D, S292T
Work on B3 yielded a Km [3] of 32 µM.

B4: Thermotoga maritima TrpB variant TmTrpB^triple (P19G, I69V, T292S), SEQ ID NO: 34 (Thermotoga maritima MSB8; I69V/P19G/T292S) (protein)
chain: B1 chain with P19G, I69V
In the case of B4, the Km [4] is reported as 26 µM.

B5: Thermotoga maritima tryptophan synthase complex TmTrpS (TmTrpA + TmTrpB) (Thermotoga maritima MSB8) (protein)
chain: B1 chain with S292T
B5 showed a Km [5] of 44 µM.

B6: Archaeoglobus fulgidus tryptophan synthase beta-subunit AfTrpB, wild type, SEQ ID NO: 4 (Archaeoglobus fulgidus DSM 4304) (protein)
chain: MRCWLENLSGGRKMKFGEFGGRFVPEVLIPPLEELEKAYDRFKDDEEFKARLEYYLKSYAGRPTPLYFAENLSRELGVKIYLKREDLLHGGAHKINNTIGQALLAKFMGKKRVIAETGAGQHGVATAMAAALLGLEAEIYMGAEDYERQKMNVFRMELLGAKVTAVESGSRTLKDAINEALRDWVESFEHTHYLIGSVVGPHPFPTIVRDFQAVIGKEARRQIIEAEGGMPDAIIACVGGGSNAMGIFHPFLNDDVRLIGVEAGGEGIESGRHSASLTAGSKGVLHGMLSYFLQDEEGMMLDTHSVSAGLDYPGVGPEHAYLKETGRCEYVTVNDEEALRAFKTLSKLEGIIPALESAHAIAYAMKMAEEMQRDDVLVVNLSGRGDKDMDIVRRRLALEHHHHHH
Protein B6 has a Km [6] of 12 µM.

B7: Archaeoglobus fulgidus TrpB variant M156T N178D (Table 6 prints N178T), SEQ ID NO: 24 (Archaeoglobus fulgidus DSM 4304; M156T/N178D) (protein)
chain: B6 chain with M156T, N178D
With B7 the Km [7] was 11 µM.

B8: Escherichia coli TrpB variant M149T N171D (Table 6 prints N171T), parent SEQ ID NO: 8, variant SEQ ID NO: 40 (Escherichia coli K-12; M149T/N171D) (protein)
chain: MTTLLNPYFGEFGGMYVPQILMPALRQLEEAFVSAQKDPEFQAQFNDLLKNYAGRPTALTKCQNITAGTNTTLYLKREDLLHGGAHKTNQVLGQALLAKRMGKTEIIAETGAGQHGVASALASALLGLKCRIYMGAKDVERQSPNVFRTRLMGAEVIPVHSGSATLKDACDEALRDWSGSYETAHYMLGTAAGPHPYPTIVREFQRMIGEETKAQILEREGRLPDAVIACVGGGSNAIGMFADFINETNVGLIGVEPGGHGIETGEHGAPLKHGRVGIYFGMKAPMMQTEDGQIEESYSISAGLDFPSVGPQHAYLNSTGRADYVSITDDEALEAFKTLCLHEGIIPALESSHALAHALKMMRENPDKEQLLVVNLSGRGDKDIFTVHDILKARGEILEHHHHHH
B8 showed a Km [8] of 18 µM.
